In assay [1] the target is human ciliary neurotrophic factor receptor (CNTFR) (human). Kind of assay: indirect binding on COS cells transfected with clone I9: CNTF-myc, 9E10, 125I goat anti-mouse; hand-held gamma counter.
Assay [2] has the same target. Kind of assay: indirect binding on COS cells transfected with clone I6: CNTF-myc, 9E10, 125I goat anti-mouse; hand-held gamma counter.
The target is the same in assay [3]. The experiment in a line: indirect binding on COS cells transfected with clone I10: CNTF-myc, 9E10, 125I goat anti-mouse; hand-held gamma counter.
The target is the same in assay [4]. Kind of assay: indirect binding on COS cells transfected with clone I12: CNTF-myc, 9E10, 125I goat anti-mouse; hand-held gamma counter.
The target is the same in assay [5]. The experiment in a line: indirect binding on COS cells transfected with clone I5: CNTF-myc, 9E10, 125I goat anti-mouse; hand-held gamma counter.
The target is the same in assay [6]. Kind of assay: indirect binding on COS cells transfected with clone I15: CNTF-myc, 9E10, 125I goat anti-mouse; hand-held gamma counter.
Assay [7] has the same target. The experiment in a line: indirect binding on COS cells transfected with clone I11: CNTF-myc, 9E10, 125I goat anti-mouse; hand-held gamma counter.
Assay [8] has the same target. The experiment in a line: indirect binding on COS cells transfected with clone I13: CNTF-myc, 9E10, 125I goat anti-mouse; hand-held gamma counter.
Assay [9] shares this target. Kind of assay: indirect binding: CNTF-myc, 9E10, FITC-labelled goat anti-mouse antibody, FACS of transfected COS cells.
For assay [10] the target is unchanged. The experiment in a line: indirect binding on COS cells transfected with clone I2: CNTF-myc, 9E10, 125I goat anti-mouse; hand-held gamma counter.
For assay [11] the target is unchanged. The experiment in a line: indirect binding on COS cells transfected with clone I7: CNTF-myc, 9E10, 125I goat anti-mouse; hand-held gamma counter.
Assay [12] has the same target. The experiment in a line: indirect binding on COS cells transfected with clone I8: CNTF-myc, 9E10, 125I goat anti-mouse; hand-held gamma counter.
The target is the same in assay [13]. Kind of assay: indirect binding on COS cells transfected with clone I14: CNTF-myc, 9E10, 125I goat anti-mouse; hand-held gamma counter.
Assay [14] shares this target. The experiment in a line: indirect binding on COS cells transfected with clone I4: CNTF-myc, 9E10, 125I goat anti-mouse; hand-held gamma counter.
Assay [15] has the same target. Kind of assay: indirect binding on COS cells transfected with clone I1: CNTF-myc, 9E10, 125I goat anti-mouse; hand-held gamma counter.

Take CNTF/myc (ligand): the CPM bound in assay [1] came out at 7000 CPM; in assay [2] it was 1600 CPM; in assay [3], 4500 CPM; in assay [4] it was 5000 CPM; in [5] it was 2000 CPM; in assay [6] it was 8000 CPM. Further, the CPM bound in assay [7] is 7000 CPM; in assay [8] it was 8000 CPM; in assay [10], 8500 CPM; in [11], 6000 CPM; in assay [12] it was 7500 CPM; in assay [13] it was 10000 CPM. Further, the values for the CPM bound in [14] and in [15] were 9000 CPM and 2000 CPM, respectively. The fold increase (FACS, positive against negative clones) in [9] stood at 100 fold.

The record behind these values is patent US5849897.
